System: Bacillus subtilis
Assay: cleaved RNA product abundance (RNA/gDNA barcode ratio) relative to median wild-type variant (ratio to wild type); higher = more accumulation of the downstream cleavage product
Method in brief: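 Reporter mRNAs (truncated aprE or tetM) carrying barcoded, mutagenized RNase Y cleavage-site windows were made from oligos with a 9% error rate and integrated into the B. subtilis chromosome. Cultures grew in LB at 37°C from OD600 0.0003 to 0.3. Cleaved RNA was gel-selected, reverse transcribed and barcode-sequenced alongside genomic DNA barcodes, with UMI collapsing. Cleaved product abundance is the RNA:gDNA barcode ratio per variant, scaled to the median wild-type variant.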

[1] = experiment (reporter, strain, medium): exp 4a: truncated aprE reporter, strain BJT201 with 2% xylose (RNase J1 expressed), cleavage site: cggR-gapA (positions -7 to +36 mutated)
[2] = experiment (reporter, strain, medium): exp 2b: truncated aprE reporter, strain BJT200, cleavage site: cggR-gapA (positions -7 to +36 mutated)
[3] = experiment (reporter, strain, medium): exp 8a: truncated aprE reporter, strain BJT201 with 2% xylose (RNase J1 expressed), cleavage site: glnRA (positions -5 to +31 mutated)

Sequence | cleaved RNA product abundance [1] | other results
ACAGACGAAGGAGCCGCAAAGAAGTTATTAAGAGATGAGTAATCCCTCAATATAAATATCTCTCACTTATTTAAA | 0.241 | 
ACAGACGAAGGAGCCGCAAAGAAGTTATTAAGGGTTGAATAAACCCTCAATATAAATATCTCTCACTTATTTAAA | 0.406 | cleaved RNA product abundance [2]: 1.07
ACAGACGAAGGAGCCGCAAAGAAGTTATTAAGGGATAAATAATCCCTCAATAAAAATATCTCTCACTTATTTAAA |  | cleaved RNA product abundance (experiment (reporter, strain, medium): exp 6: tetM reporter, strain 168, cleavage site: cggR-gapA (positions -7 to +36 mutated)): 0.148
CGACATGTCCCGCTTCTTTCATTAATCCGTAAGCAACTGTTTTGCTATATACATTTATCTTTTAAGAGGAGGAAT |  | cleaved RNA product abundance [3]: 0.536
CGACATGTCCCGCTTCTTTCATTAATCCGTTAGCAACTGTTTTGCCATATACATTTACCGTTTAAGAGGAGGAAT |  | cleaved RNA product abundance [3]: 0.539
ACAGACGAAGGAGCCGCAAAAAAGTTATAAAGAGATGAATAATCCCTCAATATAAATATCTCTCACTTATTTAAA |  | cleaved RNA product abundance [2]: 0.14
CGACATGTCCCGCTTCTTTCATTAATCCGTTACCAACTGTTTTGCAATATACATTTACCTTTTAAGAGGAGGAAT |  | cleaved RNA product abundance [3]: 0.26
CGACATGTCCCGCTTCTTTCATTAATCCGTTACCAACTGTTTTGTTATATACATTTACCTTTTAAGAGGAGGAAT |  | cleaved RNA product abundance [3]: 0.231
ACAGACGAAGGAGCCGCAAAGAAGTTATTAAGGGATGCATAATCCCTCACTATAAATATCTCTCACTTATTTAAA | 0.233 | 
ACAGACGAAGGAGCCGCAAAGAAGTTATTAAGGGATTAATAATCCCTCAAAATAAATATCTCTCACTTATTTAAA | 0.419 | cleaved RNA product abundance [2]: 0.334
ACAGACGAAGGAGCCGCAAATAAGTTATTAAGAGATGAATAATCCCTCAATATAAATATTTCTCACTTATTTAAA | 0.124 | 
ACAGACGAAGGAGCCGCAAAGAATTTATTAAGGAATGAATAATCCCTCAATATAAATATCTCTCACTTATTTAAA | 0.125 | cleaved RNA product abundance [2]: 0.0897
ACAGACGAAGGAGCCGCAAAAAAGTTATTAAGGGATGAATAATCCCTCAATATGAATATCTCTCACTTATTTAAA |  | cleaved RNA product abundance [2]: 0.135
ACAGACGAAGGAGCCGCAAAGAAGTTATTAAGGGATGAATAAGCCCTCAATATAAATAGCTCTCACTTATTTAAA | 0.406 | 
ACAGACGAAGGAGCCGCAAAGAAGATATTAAGGGATGAACAATCCCTCAATATAAATATCTCTCACTTATTTAAA | 0.647 | 
CGACATGTCCCGCTTCTTTCATTAAACCGTTAGCAACTGTTTTGCTATATACATTTACCATTTAAGAGGAGGAAT |  | cleaved RNA product abundance [3]: 1.29
ACAGACGAAGGAGCCGCAAAGATGTTATTATGGGATGAATAATCCCTCAATATAAATATCTCTCACTTATTTAAA | 0.343 | 
ACAGACGAAGGAGCCGCAAAGAAGTTATTAAGAGATGAATAATCCCTCAATATAAATATATCTCACTTATTTAAA | 0.193 | 
ACAGACGAAGGAGCCGCATAGAAGTTATTTAGGGATGAATAATCCCTCAATATAAATATCTCTCACTTATTTAAA | 0.962 | 
ACAGACGAAGGAGCCGCAAACAAGTTATTAAGGGATCAATAATCCCTCAATATAAATATCTCTCACTTATTTAAA | 0.443 | 
CGACATGTCCCGCTTCTTTCATTATTCCGTTAGCAACTGTTTGGCTATATACATTTACCTTTTAAGAGGAGGAAT |  | cleaved RNA product abundance [3]: 0.949
